Data taken from US20040171105A1.

Molecular target: GST fusion form of full-length human cIAP1 (human) (UniProt Q13490)
Assay: cell-based or functional assay

Sequence of GST fusion form of full-length human cIAP1 (human) (Q13490 whole entry, the tested form may be a part): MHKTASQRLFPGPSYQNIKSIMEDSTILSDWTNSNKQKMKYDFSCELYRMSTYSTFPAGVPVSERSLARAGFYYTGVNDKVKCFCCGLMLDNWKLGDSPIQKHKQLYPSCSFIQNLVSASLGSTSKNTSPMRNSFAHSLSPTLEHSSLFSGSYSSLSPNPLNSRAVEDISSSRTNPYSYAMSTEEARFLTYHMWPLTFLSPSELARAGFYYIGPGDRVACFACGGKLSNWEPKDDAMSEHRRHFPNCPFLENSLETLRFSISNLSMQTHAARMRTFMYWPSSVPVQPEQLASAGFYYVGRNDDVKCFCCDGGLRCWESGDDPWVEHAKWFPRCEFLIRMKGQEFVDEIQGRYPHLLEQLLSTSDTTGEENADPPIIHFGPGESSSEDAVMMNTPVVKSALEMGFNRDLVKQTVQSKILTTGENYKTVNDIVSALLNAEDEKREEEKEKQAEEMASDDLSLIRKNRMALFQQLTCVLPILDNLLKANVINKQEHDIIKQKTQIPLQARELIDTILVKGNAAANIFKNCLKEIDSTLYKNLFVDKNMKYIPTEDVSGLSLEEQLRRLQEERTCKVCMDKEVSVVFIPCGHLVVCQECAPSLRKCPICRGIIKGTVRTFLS

## Omi SA (protease dead mutant Omi S306→Ala, C-terminal hexa-His tagged) (from UniProt O43464 134-458) (enzyme)
  relief of cIAP1 inhibition of caspase activity in HeLa extracts: 75 nM
